Consider 69 sequences from the domain aggregation screens of Martell et al. (2025).

The data set can be described thus: soluble fraction after stress (log2 fold change); higher = more stays soluble; pooled small domains, quantitative proteomics. As to conditions: stress: 50 degC. An outline of the steps: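 After stress at 50°C, the amount of each protein still soluble was measured. This was done on pooled custom libraries of small protein domains, using high-throughput quantitative proteomics. The figure given is a base-two log fold change and stands for aggregation propensity, with higher values meaning more protein stays in solution.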
Consider “HMVDIVLDILKIVAEKQPGNQFSQSILMQYQERGGLSKKQLEGLYGKAKRIPEIPQNKLATLEAIILR”, for which the “soluble fraction (log2)” value was -1.41.
In the case of “HMSAGPQGRTPREDELTVGTKVYVSRVGASGVVSSDVSRGKVVVQVGALRLTAAVSELLLLDG”, the “soluble fraction (log2)” value came out at 0.151.
With “HMQDRDKNIEEGRQLVLHEMDRLDLVDEPLHDVARQLNMKAVEDMFAAVGAGDLRLGQIIHQLLKQADTN”, the “soluble fraction (log2)” value is -0.0442.
In the case of “HMGDVSGFLRGVLADGPVPAKTVFSEASGAGYSRDQIQRAARKIGVERRKTGMAGGWVWELEP”, the “soluble fraction (log2)” value was 0.014.
In the case of “HMGELVIPPLRERTVVDAVAEAERLGFVVQVEPVASSLPEGRVLGQSPEPGTRARKSQVVVLQVSRG” it was -0.148.
Take “HMYTVVVGDSPSLIADKTGVPLKELTAMNPNLSDNFLPGKQLL”: the “soluble fraction (log2)” value is 0.000825.
Consider “HMDYYDTLGVPRNASQSDIKKAYKKQSMQHHPDRTGGDDTKFKDVNEAYQVLSNSEKKQMYDQFGTA”, for which the “soluble fraction (log2)” value was 0.0532.
On to “HMDHFFSKYDSIVNHTVQKKETLFGISKKYGLTINEVIKFNPGIQIDKLKRRSVLIIPLMKKN”, for which the “soluble fraction (log2)” value is -0.917.
Under “HMTAKRELILRVFMDSNGKLLSIDDVFMEMRKKRSHRTSKMTVKRAIDLLVDLGLLKEVLFDDDNIKYEYV” stands -0.0948; under “HMLLFNVADIVKRAKRVLNFKTDAELAAYLGVSRPTLSNWIARNGIDFPLLLEKLKEIDYNWLLVGKGKPE”, -2.33; under “HMGVAAPMPGTITDVRVKVGDRVQPRTVVMMLEAMKMENEIFAGRAGVVSQVAVEKGASVNTGDLLISIDP”, 0.129.
Turning to “HMGKRPTIQMVAEMAGVSRGTVDRVLNGRSYVSAQVRQRVLAALQETGYISSREHHQQALQS”, the “soluble fraction (log2)” value is -0.0246.
In the case of “HMTMNLIEIGHVVGARRAELGLTQAQLAHLSGLSRQTVVGLEKGTLSDLGVNRVGQVMAVLGLDS” it was -0.51; in that of “HMQMPLTMATMGEVNKIVKVGGNEETRRFLANLGFVAGAEVVVLSKIGGNVIVNVKDSRVAVNEDMARHIM”, -0.997; in that of “HMPSTVRVPDVAETSLSEAKKTIEESGLEVGAIHKVNNDTVKKNHVIKTSPTIGSAKKEGSAIDIYVSKG”, -0.0128.
Under “HMIMNKEIPVVADEFVEKEFGTGAVKLTPAHDPNDYESGERHGLEVVEVFDETGKMNDLVPEYEG” stands 0.551.
In the case of “HMIQAGDLVFIWNPKKGDNFLIKVTPGMSQGTHFGQIKHTELMEREYGEGIVTPKGEVYYLLRPTLAGYTR” it was -0.973; in that of “HMEVPQVETEKVEAKLKEAEVLLVKVTDSSLKANATETLAGLRNNLTLQTMDNNGIMAEAEKLLALLRES”, 0.0393.
As for “HMTEFDVIMKSFGSEKIKVIKEVRAITGLGLAEAKALVEGVPAKIKEQVSKDDAEALKKQLEAVGAEVEL”, the “soluble fraction (log2)” value stood at 0.0379.
In the case of “HMARGATELPYSQLLDRVEAGEITTATTQGNTLLSTARDGKRYITYLPLDTMDEVVPRLDAANVEVKTER” it was 0.0506; in that of “HMASINRIENKNGKVVYRIIVSLGYDKQGKKLKKTITYNVNQTATKKQQENEALKYALDIEDKIKNGHD”, -1.44; in that of “HMEINKLIELIGGYKALSEVLNVSKSAISNYKKRGSLPSYAIPIIVKELKSKGISIDLSEFT”, -0.66.
In the case of “HMGTGADQVSWKTGDKVTHKKWGEGTVVKVSGSGNDKELDIAFPQQGVKRLLASFAPIKKVT” it was 0.168; in that of “HMKLPNGYGGIAKLSGKRRNPWRVRVTKGWSVDEQTGKAKQLFSTLGYYPTRKDALAALSAYNQNP”, -0.942; in that of “HMLVKKYTEEETGRQAELSKQLAELSKAYYNTGNSMVDDAVFDKLRDELSSLEKESGFAYDISPNVS”, -0.953.
“HMAVKPIDRLRSLMAESNVTDAELQKVVADKGHYAADAPIDSYSEKFISGWLIKYWSQILNLINADRTVL”: the “soluble fraction (log2)” value is -0.0363.
Under “HMNPGQIIRKLRQDQGMTLAVLAKYANLDPGNLSRIERDDLNISFNLLEKLSLILNVSPIVFFH” stands -0.154; under “HMEEKTMNLPPSAKLVYKILSYEGNLTQKEIINMTYLPERTVRHALELLLGKRLITRQAYLNDARQSVYG”, -1.66; under “HMTKQNVVPLMYRMIDTLEQFIKADVPFNIETRLARVERLRETMVSSSVTTSEKFRQVLEAYTIETD”, -0.924.
Under “HMNPVVATTIILDGEIIKDNLAEANLSEEWLLEELKRQNFNDVKEVFYAEWLDGKQLFAYPYTK” stands -0.224.
In the case of “HMSKGKNEVIAYLKAHNDHRLTVAEILDGLKEEGISINRSTIYRNLDKLVENGDILAFKGKDSESAFYQYS”, the “soluble fraction (log2)” value is 0.0754.
Under “HMDPLGALSDRERQVLALIGQGHGLQAIADQLGVSYKTAANTSSALKKKLGVDGINGLMKFALDSG” stands -0.505; under “HMSSEYARFFSGNYYEVLGVAKNASYDEIKAAWKKLVKEYHPDLHPQRQEEFTKIIQKINEAYEYFKKMH”, -0.0398; under “HMKHKYWEIKERIKKDILNEVYKKGESIPSERDLAGIYDVTRVTVQKAMAMLVQEGYIERIHGKGMFVLKN”, -0.801.
Under “HMARDDVIRLVQLSLDHLPAKYADALEWKYVEGLSTKEIAARLELGSEAAESLLARARRAFKNDFQEIFES” stands -1.41.
Take “HMDRELVALVQKALSQLSEQQRRIVELHVMEGMKYLEIADLLQLSENTVRTHLKRAYKILRENH”: the “soluble fraction (log2)” value is -1.76.
In the case of “HMHSILDDIPTVGPARRKALMRRYESLEAIRQATVDELKELPEINEASAEAIVSFFAGQAKEG” it was -0.0626; in that of “HMGKLQFREKLNGILELGKEKHRVLTMEDVEKYFEEDALSEEQMELVYDYLLSQKIAVTGYVKK”, -0.191.
For “HMFSWRQHLDHFGFSDEIKKRLADAVFLNDDWNEIDRGVLTKEELLARFIENDPGIEKEIYMVMENIN”, the “soluble fraction (log2)” value is -0.509.
Consider “HMDYDDLVPLDARGRLRLDGQDIILAFGRHRGRSIEEVHNHDKSYFDWLVSPAGGLEDEVIATLRERF”, for which the “soluble fraction (log2)” value was -0.607.
Turning to “HMSVSVNAPMPGNILDVRAKTGESIQKGQVIVILEAMKMENEIMAPQDGKISSINTSKGSTVNSGDLLFTM”, the “soluble fraction (log2)” value is -0.155.
In the case of “HMASPTKQLVLEALRASGQPMSSMELSAQIGVSRATAQRYLSTLASAGEVKIQLRYGTTGRPEQEFLAIE” it was -0.868; in that of “HMDRTIGEIGLVTETIDSTLESGRVMVDGLSWKARTSDNTVLEAGTRVQVKEIHGVTLTVEKA”, 0.166; in that of “HMGTSQSAVKAILAQLISDENKQKPYSDEALSRLLQQQGIDIARRTVAKYREALNIPPAHQRK”, 0.101.
Under “HMQYKVMDVTVDGNPVIEFQNLNSKIKWIENNPDAIIQNIKTSSFEADQKRIVGTSRGPFWIVIKPDF” stands -0.144; under “HMKIVQHQLQLPVHVAGKFKGMFYKSDFVMSEDYDDDGNMILAVRLPLVDWNKFLKRTDNELSQYIKVTP”, -0.858.
In the case of “HMETDNEKVRTAFQNGLAAYREQDWDRAEAAFGAVLAEMPEDRPSLVYLERIAHLRKKAPPGAWDGVWI” it was -0.0616; in that of “HMGQDTTIVVRRGESLLGIAARLLPATDFYTTGELAEGIRTASGMENDRLIPGQTLRVPLNSG”, -0.0889.
Consider “HMVQYVDFVKRMIEELPWWHRRMLELKYLDGLTYEEIADELQVPVGTVKGTLHRAKELFQEILKNN”, for which the “soluble fraction (log2)” value is -2.05.
On to “HMGGLALAEREVVEWLSQRNLLPSPDVVARAAAHPDGLGWLERSLAVLEGPRLFLGLGDLVPEP”, for which the “soluble fraction (log2)” value was -0.411.
As for “HMSSVVVARTWTDTTGDFKVEAELLGVEGGLVRLKKEDGTVLSVPIAKLSTADRTFLQENQP”, the “soluble fraction (log2)” value was 0.144.
In the case of “HMSASSDATRQRVLRAAEQLFGAKGVENVSLREMTTLAGVNLAAVNYHFGSKDALAEAVFEALSER” it was 0.41; in that of “HMDDYRSLRGQEKAAIFLMSLSQEQAAKIFANLDDEEIKEISQAMSSLGTVGSEIIERLFVEFAEQVSS”, -1.06.
Take “HMKLTEEEFNAKRKAYLDRLETLNDEAVIKATFMEAASGLGLQKGSAEFGDLRKYFVDRIVDIK”: the “soluble fraction (log2)” value worked out at 0.385.
In the case of “HMVGLTDLQRNVLVQIARGKSRQLISRTLKVTPAEISAALKVAQRRYRVASSTEVIVQALYDKTLSFHEIM”, the “soluble fraction (log2)” value is -0.625.
With “HMQQVDWGSVFGDFGTMFKDQLQPTIDRLRRMAQSDTFRQSSLEEQQILYSLIEKLERSGTA”, the “soluble fraction (log2)” value was -1.03.
In the case of “HMGTSIMIIIVKPETKKERVNDLIHWIESQNLRTHLSTGDYSTIIGVIGDTSKLDSELIRGLDIVENVKRV” it was -0.318; in that of “HMERYSVQVGSFRNMRYAERLKQELQGEDFPAYIEKSGEFNRVRVGKGLTLEEATQLEQVLRKSGYQTVIV”, -0.395; in that of “HMQNESGLFTMSDLWEAGLMGSENASRKRAAVGAFLGIGFGNGKQFLKRLNHFGVTKEEWESALEQLGE”, -0.684.
Turning to “HMKPPVQVIGKAVVTASSLNVRTGPGTGHGIITSLPRNTEVELLEQQGEWYKIRRGSTVGYVHGGYLKIN”, the “soluble fraction (log2)” value was -0.00404.
Under “HMKNLHLVPNVVGMSAKEAKNTLKSFNIKYKPIYGSSNKYDENYIFNQNPRKGKTIKEQEVVTIYISRGAD” stands -1.07; under “HMNNQKATAVKVASGIVNLRSGPATSYETLDTVATGETLSVLAEKDGWFQVSRAGRTGWVAGWVVDVIRE”, -0.0645; under “HMRPILTLEEAKAKALAHAGLKADQVTFTEAKLDWDDGKQVYDIEFYTADFKEYDYEIDAKTGEVLEVDY”, -0.452.
In the case of “HMDEEEKGEVEVPNLIGLTRKEAKKTLEEEGLLIETKESLKTNLDDEYEKIKSQLPKAGIKIKQGSTVYVD” it was 0.0917; in that of “HMGTTIAMSKLKQVLRWKEEGYSNRKIAQLVGLNKETVNNYISRANADSLSQKELLQLDDFVLDIRLRG”, -1.32.
For “HMHHGALKQALLDETARILAEEGESALSLRRLASNLGVSRTAPYNHFDNKDALLSAVAEEGFRR”, the “soluble fraction (log2)” value was -0.032.
For “HMLGIGANVQKIAQERKISLKELSRRAGIPYTTIYNMVKRDSSRVSPENLQKLADALGVEIGKLYG”, the “soluble fraction (log2)” value was determined as 0.0652.
Take “HMKTKHISIAEGMSLYTRDRSPFYWGYLNIEGVIHKKSLKTDVVDEAIKLLSIWKNELLNSITK”: the “soluble fraction (log2)” value is -1.28.
In the case of “HMNSIDIENELVKIIEKNGQPMSFDDLVFKLDSLYSTRYKFAKGYIRTIILNSNRIASIGKTSTYSLYKWN” it was -2.25.
